Test results taken from patent US20110045489A1, “Polymerases for Incorporating Modified Nucleotides” (NEW ENGLAND BIOLABS, INC., priority 2008, published 2011).

How the values were obtained:
Assay type in all cases: biochemical
3′-azido-ddCTP [1] = assay: Titration assay for chain terminator incorporation efficiency (3′-azido-ddCTP); details: 3′-azido-ddCTP:dNTP 10:1, 2.5:1, 1:2.5; FIG. 1
Experimental: FIG. 1A-1D show titration assays for chain terminator incorporation efficiency. The relative efficiency of incorporation of modified nucleotide terminators was assessed using the titration assay described in Gardner and Jack Nucleic Acids Research 30: 605-613 (2002). A dye-labeled oligonucleotide primer 5′-AGTGAATTCGAGCTCGGTACCCGGGGATCCTCTAGAGTCGACCTGCAGGC-3′ was annealed to a single-stranded M13mp18 DNA template (Accession No. X02513) and extended by a DNA polymerase in the presence of various ratios of 3′-azido-ddCTP:dNTP (10:1, 2.5:1, 1:2.5) or dNTP (“dN” in the figure) alone in 1×ThermoPol buffer (20 mM Tris-HCl, 10 mM (NH4)2SO4,10 mM KCl, 2 mM MgSO4, 0.1% Triton X-100, pH 8.8 @ 25° C.). […]
In order to determine the extent of 3′-modified nucleotide incorporation by archaeon DNA polymerases, the titration assay described by Gardner and Jack (2002) was used. […] By comparing the amount of terminator required to give the same spectrum of reaction products, the relative efficiency of incorporation of the test compounds with the different polymerases was determined. […]
Once the spectrum of termination products was determined, a comparison of the length, uniformity and clarity of these patterns was used to evaluate incorporation of the terminator. […]
The size distribution of termination products was determined by the relative rates of dNTP and terminator incorporation. […]

modified nucleotide = assay: Screen of DNA polymerase mutants for modified nucleotide incorporation
In short: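 Purified 9° N exo- DNA polymerase mutants from a library screened for 3′-modified terminator (3′-azido-ddCTP, 3′-amino-ddCTP) incorporation by chain-terminator titration. Efficiency judged from reaction product size; relative efficiency from amount of terminator needed to give the same product spectrum.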

3′-azido-ddCTP [2] = assay: Kinetic analysis of 3′-azido-ddCTP incorporation (primer extension, PAGE)
Experimental: An IR800-dye-labeled synthetic primer 5′-AGTGAATTCGAGCTCGGTACCCGGGGATCCTCTAGAGTCGACCTGCAGGC-3′ (SEQ ID NO:18) was annealed to a template 3′-TCACTTAAGCTCGAGCCATGGGCCCCTAGGAGATCTCAGCTGGACGTCCGGATCCTATACTAATCCC-5′ (SEQ ID NO:19) and used as a substrate to measure rates of 3′-azido-ddCTP incorporation. Incorporation of varying concentrations of 3′-azido-ddCTP (100, 50, 25, 12.5, 6.25, and 3.125 μM) by 9° N exo-L408S/Y409A/P410V DNA polymerase was monitored over a three-minute time course. Reaction aliquots were sampled at 10, 20, 30, 45, 60, and 180 seconds and analyzed by 20% denaturing PAGE. “S” is the unextended primer and “P” is the fully extended product corresponding to 3′-azido-ddCMP addition at the +1 position.
(§1) An IR800-dye-labeled synthetic primer 5′-AGTGAATTCGAGCTCGGTACCCGGGGATCCTCTAGAGTCGACCTGCAGGC-3′ (SEQ ID NO:18) was annealed to a template 3′-TCACTTAAGCTCGAGCCATGGGCCCCTAGGAGATCTCAGCTGGACGTCCGGATCCTATACTAATCCC-5′ (SEQ ID NO:19) and used as a substrate. Reaction aliquots were sampled at 10, 30, 60, 120 and 300 seconds and analyzed by 20% denaturing PAGE. Unextended primer (0) and fully extended product (+1) are indicated.
Linear rates of 3′-azido-ddCTP incorporation derived from these curves are 100 μM: 0.05 s^−1; 50 μM: 0.05 s^−1; 25 μM: 0.05s^−1; 12.5 μM: 0.03s^−1; 6.25 μM: 0.03s^−1; 3.125 μM: 0.02 s^−1.
An IR800-dye-labeled synthetic primer 5′-AGTGAATTCGAGCTCGGTACCCGGGGATCCTCTAGAGTCGACCTGCAGGC-3′ (SEQ ID NO:18 was annealed to a template 3′-TCACTTAAGCTCGAGCCATGGGCCCCTAGGAGATCTCAGCTGGACGTCCGGATCCTATACTAATCCC-5′ (SEQ ID NO:19) and used as a substrate to measure rates of 3′-azido-ddCTP incorporation over a three-minute time course. The results are shown in FIG. 2. Reaction aliquots were sampled at 10, 20, 30, 45, 60, and 180 seconds and analyzed by 20% denaturing PAGE where “S” indicates the unextended primer and “P” the fully extended product corresponding to 3′-azido-ddCMP addition at the +1 position(B). 9° N exo-L408S/Y409A/P410V incorporation of varying concentrations of 3′-azido-ddCTP was measured over a three-minute time course.

3′-amino-ddCTP = assay: Kinetic analysis of 3′-amino-ddCTP incorporation (primer extension, PAGE); details: FIG. 3
Description: as §1
Furthermore, the same assay was used to measure 3′-amino-ddCTP incorporation by 9° N exo-L408S/Y409A/P410V (FIG. 3) and to measure rates of incorporation (FIG. 4). Examples of mutants that increased modified nucleotide incorporation by at least two-fold were: […]

Row | 3′-azido-ddCTP incorporation efficiency relative to wild-type 9° N exo-DNA polymerase (3′-azido-ddCTP [1]) | increase of modified nucleotide incorporation (modified nucleotide) | Molecule | linear rate of 3′-azido-ddCTP incorporation (3′-azido-ddCTP [2]; 3.125 μM 3′-azido-ddCTP) | linear rate of 3′-azido-ddCTP incorporation (3′-azido-ddCTP [2]; 6.25 μM 3′-azido-ddCTP) | linear rate of 3′-azido-ddCTP incorporation (3′-azido-ddCTP [2]; 12.5 μM 3′-azido-ddCTP) | linear rate of 3′-azido-ddCTP incorporation (3′-azido-ddCTP [2]; 25 μM 3′-azido-ddCTP) | linear rate of 3′-azido-ddCTP incorporation (3′-azido-ddCTP [2]; 50 μM 3′-azido-ddCTP) | linear rate of 3′-azido-ddCTP incorporation (3′-azido-ddCTP [2]; 100 μM 3′-azido-ddCTP) | concentration of modified nucleotide sufficient for efficient incorporation (3′-azido-ddCTP [2]; 3′-azido-ddCTP, FIG. 3) | 3′-azido-ddCTP incorporation (3′-azido-ddCTP [2]; after three minutes) | concentration of modified nucleotide sufficient for efficient incorporation (3′-amino-ddCTP)
1 | at least 2 fold | at least two-fold | 9° N exo-L408S/P410V: 9° N DNA polymerase mutant (protein, UniProt Q56366 1-775, looked up, variant D141A E143A L408S P410V) DNA polymerase: MILDTDYITENGKPVIRVFKKENGEFKIEYDRTFEPYFYALLKDDSAIEDVKKVTAKRHGTVVKVKRAEKVQKKFLGRPIEVWKLYFNHPQDVPAIRDRIRAHPAVVDIYEYDIPFAKRYLIDKGLIPMEGDEELTMLAFAIATLYHEGEEFGTGPILMISYADGSEARVITWKKIDLPYVDVVSTEKEMIKRFLRVVREKDPDVLITYNGDNFDFAYLKKRCEELGIKFTLGRDGSEPKIQRMGDRFAVEVKGRIHFDLYPVIRRTINLPTYTLEAVYEAVFGKPKEKVYAEEIAQAWESGEGLERVARYSMEDAKVTYELGREFFPMEAQLSRLIGQSLWDVSRSSTGNLVEWFLLRKAYKRNELAPNKPDERELARRRGGYAGGYVKEPERGLWDNIVYLDFRSSYVSIIITHNVSPDTLNREGCKEYDVAPEVGHKFCKDFPGFIPSLLGDLLEERQKIKRKMKATVDPLEKKLLDYRQRAIKILANSFYGYYGYAKARWYCKECAESVTAWGREYIEMVIRELEEKFGFKVLYADTDGLHATIPGADAETVKKKAKEFLKYINPKLPGLLELEYEGFYVRGFFVTKKKYAVIDEEGKITTRGLEIVRRDWSEIAKETQARVLEAILKHGDVEEAVRIVKEVTEKLSKYEVPPEKLVIHEQITRDLRDYKATGPHVAVAKRLAARGVKIRPGTVISYIVLKGSGRIGDRAIPADEFDPTKHRYDAEYYIENQVLPAVERILKAFGYRKEDLRYQKTKQVGLGAWLKVKGKK |  |  |  |  |  |  |  |  | 
2 |  | at least two-fold | 9° N exo-L408S/Y409A/P410V: 9° N DNA polymerase mutant (Therminator III™, NEB) (protein, UniProt Q56366 1-775, looked up, variant D141A E143A L408S Y409A P410V) DNA polymerase: MILDTDYITENGKPVIRVFKKENGEFKIEYDRTFEPYFYALLKDDSAIEDVKKVTAKRHGTVVKVKRAEKVQKKFLGRPIEVWKLYFNHPQDVPAIRDRIRAHPAVVDIYEYDIPFAKRYLIDKGLIPMEGDEELTMLAFAIATLYHEGEEFGTGPILMISYADGSEARVITWKKIDLPYVDVVSTEKEMIKRFLRVVREKDPDVLITYNGDNFDFAYLKKRCEELGIKFTLGRDGSEPKIQRMGDRFAVEVKGRIHFDLYPVIRRTINLPTYTLEAVYEAVFGKPKEKVYAEEIAQAWESGEGLERVARYSMEDAKVTYELGREFFPMEAQLSRLIGQSLWDVSRSSTGNLVEWFLLRKAYKRNELAPNKPDERELARRRGGYAGGYVKEPERGLWDNIVYLDFRSSAVSIIITHNVSPDTLNREGCKEYDVAPEVGHKFCKDFPGFIPSLLGDLLEERQKIKRKMKATVDPLEKKLLDYRQRAIKILANSFYGYYGYAKARWYCKECAESVTAWGREYIEMVIRELEEKFGFKVLYADTDGLHATIPGADAETVKKKAKEFLKYINPKLPGLLELEYEGFYVRGFFVTKKKYAVIDEEGKITTRGLEIVRRDWSEIAKETQARVLEAILKHGDVEEAVRIVKEVTEKLSKYEVPPEKLVIHEQITRDLRDYKATGPHVAVAKRLAARGVKIRPGTVISYIVLKGSGRIGDRAIPADEFDPTKHRYDAEYYIENQVLPAVERILKAFGYRKEDLRYQKTKQVGLGAWLKVKGKK | 0.02 s⁻¹ | 0.03 s⁻¹ | 0.03 s⁻¹ | 0.05 s⁻¹ | 0.05 s⁻¹ | 0.05 s⁻¹ | 10 µM | ~100% | 10 µM
